Measured values: patent publication US20190330280, “TRANSCRIPTIONAL REGULATORY FUSION POLYPEPTIDE” (Astellas Pharma Inc., published 2019)

Tests used:
Experiment in all cases: cell_activity; human T cells, 3.0 nM protein added to medium, 24 h, 37 C
Details in all cases: tags: N-terminal GST, NTP cell-penetrating peptide, p300 core fusion
[1] = molecular target: T1, NTP-TALE-TERT-3-p300CD (artificial, UniProt P14727 SEQ:29-906)
T1 chain: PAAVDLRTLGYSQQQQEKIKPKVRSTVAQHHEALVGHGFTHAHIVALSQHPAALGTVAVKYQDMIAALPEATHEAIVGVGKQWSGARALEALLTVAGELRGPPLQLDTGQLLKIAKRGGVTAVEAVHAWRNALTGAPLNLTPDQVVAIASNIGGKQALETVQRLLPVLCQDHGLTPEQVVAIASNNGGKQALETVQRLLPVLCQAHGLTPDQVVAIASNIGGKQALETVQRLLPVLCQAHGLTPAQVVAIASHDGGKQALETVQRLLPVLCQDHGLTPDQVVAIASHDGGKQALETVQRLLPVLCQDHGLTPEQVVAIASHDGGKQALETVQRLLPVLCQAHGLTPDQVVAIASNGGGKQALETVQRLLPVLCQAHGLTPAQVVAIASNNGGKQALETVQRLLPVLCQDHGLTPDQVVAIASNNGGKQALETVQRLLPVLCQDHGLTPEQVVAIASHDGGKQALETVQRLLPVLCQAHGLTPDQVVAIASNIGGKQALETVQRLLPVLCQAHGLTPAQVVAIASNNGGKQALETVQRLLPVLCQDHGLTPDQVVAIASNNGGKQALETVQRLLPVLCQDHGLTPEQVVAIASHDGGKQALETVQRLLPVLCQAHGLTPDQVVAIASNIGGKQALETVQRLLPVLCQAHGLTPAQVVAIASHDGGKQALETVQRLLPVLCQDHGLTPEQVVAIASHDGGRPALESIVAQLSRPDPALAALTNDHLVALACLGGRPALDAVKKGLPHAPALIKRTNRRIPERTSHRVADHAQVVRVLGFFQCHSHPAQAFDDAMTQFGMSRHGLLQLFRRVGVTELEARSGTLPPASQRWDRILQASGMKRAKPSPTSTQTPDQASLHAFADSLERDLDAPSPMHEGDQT
Procedure: (§1) Each NTP-TALE-Activator (NTP-TALE-TERT-1-p300CD, NTP-TALE-TERT-2-p300CD and NTP-TALE-TERT-3-p300CD) targeting human TERT, prepared in Example 1 was dialyzed at 4° C. for 3 hours against OPTI-MEM medium (Thermo Fisher Scientific Inc.) in a microdialysis column (Tomy Seiko Co., Ltd.). The concentrations after purification were 40 nM NTP-TALE-TERT-1-p300CD, 55 nM NTP-TALE-TERT-2-p300CD, and 55 nM NTP-TALE-TERT-3-p300CD. Human T cells (obtained by separation from peripheral mononuclear cells in blood collected from a healthy person) were suspended in 100 μL of KBM550 (Kohjin Bio Co., Ltd.) and seeded in a 96-well plate at 0.5×10⁴ cells/well.
(§2) The obtained human T cells were cultured for 12 hours. Then, each NTP-TALE-Activator dialyzed as mentioned above was added at 3.0 nM (final concentration) to each well (as a result of conducting studies beforehand with a plurality of concentrations, the concentration at which each NTP-TALE-Activator was most responsive was 3.0 nM). Wells to which NTP-TALE-Activator was not added were prepared as a control. The plate was left standing for 24 hours in an incubator at 37° C. and a CO₂ concentration of 5%.

[2] = molecular target: T2, NTP-TALE-TERT-1-p300CD (artificial, UniProt P14727 SEQ:29-906)
T2 chain: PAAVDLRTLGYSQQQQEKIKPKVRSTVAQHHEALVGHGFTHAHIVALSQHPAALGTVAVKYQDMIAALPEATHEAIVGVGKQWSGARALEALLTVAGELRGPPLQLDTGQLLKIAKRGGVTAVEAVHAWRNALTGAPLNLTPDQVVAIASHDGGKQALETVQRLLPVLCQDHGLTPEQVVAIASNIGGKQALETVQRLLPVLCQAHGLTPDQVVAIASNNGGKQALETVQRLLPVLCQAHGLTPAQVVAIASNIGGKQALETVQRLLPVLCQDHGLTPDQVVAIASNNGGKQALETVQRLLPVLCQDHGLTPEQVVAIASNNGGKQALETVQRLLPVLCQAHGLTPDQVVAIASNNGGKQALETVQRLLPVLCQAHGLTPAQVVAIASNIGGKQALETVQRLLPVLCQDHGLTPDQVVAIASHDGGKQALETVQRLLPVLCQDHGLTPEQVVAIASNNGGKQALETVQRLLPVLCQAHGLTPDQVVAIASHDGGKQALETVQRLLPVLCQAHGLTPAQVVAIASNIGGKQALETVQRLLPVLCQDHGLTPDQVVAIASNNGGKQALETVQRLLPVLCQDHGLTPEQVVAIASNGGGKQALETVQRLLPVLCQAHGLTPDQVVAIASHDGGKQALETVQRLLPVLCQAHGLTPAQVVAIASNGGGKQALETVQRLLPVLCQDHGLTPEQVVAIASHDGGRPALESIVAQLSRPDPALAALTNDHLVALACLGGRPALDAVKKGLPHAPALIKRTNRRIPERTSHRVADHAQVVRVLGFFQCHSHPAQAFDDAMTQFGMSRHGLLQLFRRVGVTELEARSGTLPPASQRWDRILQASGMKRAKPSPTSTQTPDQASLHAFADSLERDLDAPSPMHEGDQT
Procedure: as §1, §2

[3] = molecular target: T3, NTP-TALE-TERT-2-p300CD (artificial, UniProt P14727 SEQ:29-906)
T3 chain: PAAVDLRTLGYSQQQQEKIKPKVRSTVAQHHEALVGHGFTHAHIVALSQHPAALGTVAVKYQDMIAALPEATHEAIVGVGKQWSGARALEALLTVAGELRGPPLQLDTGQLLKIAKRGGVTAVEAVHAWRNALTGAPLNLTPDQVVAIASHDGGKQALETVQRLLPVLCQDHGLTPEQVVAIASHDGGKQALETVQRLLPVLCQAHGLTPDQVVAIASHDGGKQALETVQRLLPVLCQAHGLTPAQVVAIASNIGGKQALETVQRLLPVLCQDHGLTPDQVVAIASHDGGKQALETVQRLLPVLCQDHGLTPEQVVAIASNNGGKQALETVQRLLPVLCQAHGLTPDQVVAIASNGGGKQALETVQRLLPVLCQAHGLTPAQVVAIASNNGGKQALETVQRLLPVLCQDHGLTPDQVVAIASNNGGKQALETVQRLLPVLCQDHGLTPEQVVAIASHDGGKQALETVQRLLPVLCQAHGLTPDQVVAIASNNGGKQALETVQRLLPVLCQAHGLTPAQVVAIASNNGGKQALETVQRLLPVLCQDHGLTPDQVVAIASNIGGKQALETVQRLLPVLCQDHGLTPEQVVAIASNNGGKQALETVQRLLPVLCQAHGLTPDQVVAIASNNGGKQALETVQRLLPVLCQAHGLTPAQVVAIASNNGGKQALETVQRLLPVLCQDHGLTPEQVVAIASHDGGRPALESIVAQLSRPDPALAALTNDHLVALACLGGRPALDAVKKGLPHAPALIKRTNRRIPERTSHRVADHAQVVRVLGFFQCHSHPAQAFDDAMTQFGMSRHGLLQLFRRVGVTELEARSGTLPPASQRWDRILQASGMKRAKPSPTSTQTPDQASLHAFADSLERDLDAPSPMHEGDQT
Procedure: as §1, §2

B1: human TERT enhancer target (AH007699.2 nt 6501-6518) (dsDNA)
DNA 1: TAGACCCTGGCAGGCACT
DNA 2: AGTGCCTGCCAGGGTCTA
activity [1]: ~2 fold TERT mRNA

B2: human TERT enhancer target (AH007699.2 nt 49444-49461) (dsDNA)
DNA 1: TCAGAGGGACGCAGTCTT
DNA 2: AAGACTGCGTCCCTCTGA
activity [2]: ~17 fold TERT mRNA

B3: human TERT promoter target (AH007699.2 nt 11029-11046) (dsDNA)
DNA 1: CCCCACGTGGCGGAGGGA
DNA 2: TCCCTCCGCCACGTGGGG
activity [3]: ~3.5 fold TERT mRNA
